These results are taken from patent US20240409906, “INTEGRASES, LANDING PAD ARCHITECTURES, AND ENGINEERED CELLS COMPRISING THE SAME” (Asimov Inc., published 2024).

Common to all, as to experiment: cell_activity; attB x attP EGFP inversion reporter, HEK293FT
One data set concerns the target T1, Int29 (Bacillus weihenstephanensis KBAB4).
T1 chain: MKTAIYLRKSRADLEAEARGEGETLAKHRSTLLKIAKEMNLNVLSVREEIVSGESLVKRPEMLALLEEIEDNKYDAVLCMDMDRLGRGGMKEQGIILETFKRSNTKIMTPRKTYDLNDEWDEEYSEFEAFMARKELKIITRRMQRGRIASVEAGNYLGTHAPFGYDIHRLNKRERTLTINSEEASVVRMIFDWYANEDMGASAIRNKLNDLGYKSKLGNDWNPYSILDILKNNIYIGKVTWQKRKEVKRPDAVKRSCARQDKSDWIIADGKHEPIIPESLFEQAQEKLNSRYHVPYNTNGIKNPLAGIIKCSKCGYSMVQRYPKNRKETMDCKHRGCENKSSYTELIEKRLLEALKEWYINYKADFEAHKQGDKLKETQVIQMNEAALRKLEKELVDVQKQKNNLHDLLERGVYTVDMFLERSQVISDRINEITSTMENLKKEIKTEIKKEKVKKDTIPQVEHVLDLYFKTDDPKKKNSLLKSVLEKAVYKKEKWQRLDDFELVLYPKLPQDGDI
Conditions: tags: C-terminal GS linker-SV40 NLS; chain copies: 4.

Another data set addresses T2, Int23 (Clostridium difficile 630).
T2 chain: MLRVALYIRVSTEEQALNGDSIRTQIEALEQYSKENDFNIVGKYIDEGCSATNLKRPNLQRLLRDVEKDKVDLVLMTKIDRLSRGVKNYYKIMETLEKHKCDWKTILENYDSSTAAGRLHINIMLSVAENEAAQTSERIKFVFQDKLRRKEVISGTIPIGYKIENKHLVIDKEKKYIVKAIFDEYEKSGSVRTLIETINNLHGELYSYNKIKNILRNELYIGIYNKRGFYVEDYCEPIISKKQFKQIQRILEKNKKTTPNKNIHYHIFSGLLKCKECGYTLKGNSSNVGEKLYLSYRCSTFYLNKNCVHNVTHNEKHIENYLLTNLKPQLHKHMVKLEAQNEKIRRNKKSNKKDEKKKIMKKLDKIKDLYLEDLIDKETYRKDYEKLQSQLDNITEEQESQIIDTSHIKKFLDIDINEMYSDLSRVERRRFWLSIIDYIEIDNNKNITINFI
Conditions: tags: C-terminal GS linker-SV40 NLS.

A further data set addresses T3, Int5 (Streptomyces phage PhiK38-1).
T3 chain: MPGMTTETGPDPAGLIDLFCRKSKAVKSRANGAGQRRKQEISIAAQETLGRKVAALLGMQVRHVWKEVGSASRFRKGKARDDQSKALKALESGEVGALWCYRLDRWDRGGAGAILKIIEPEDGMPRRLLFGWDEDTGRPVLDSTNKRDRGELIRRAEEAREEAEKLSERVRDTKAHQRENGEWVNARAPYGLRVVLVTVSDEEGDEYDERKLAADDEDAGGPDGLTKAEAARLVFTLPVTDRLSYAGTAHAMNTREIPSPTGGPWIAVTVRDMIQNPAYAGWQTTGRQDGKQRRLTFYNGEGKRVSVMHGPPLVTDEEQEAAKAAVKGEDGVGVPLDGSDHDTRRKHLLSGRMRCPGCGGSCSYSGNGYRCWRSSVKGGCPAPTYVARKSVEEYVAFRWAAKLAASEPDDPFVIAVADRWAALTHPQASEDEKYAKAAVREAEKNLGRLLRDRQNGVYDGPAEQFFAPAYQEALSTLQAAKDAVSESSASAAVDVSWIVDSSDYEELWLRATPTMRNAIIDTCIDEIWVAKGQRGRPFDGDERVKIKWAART
Conditions: tags: C-terminal GS linker-SV40 NLS.

A further data set has as its target T4, Int32 (Rhodococcus jostii RHA1).
T4 chain: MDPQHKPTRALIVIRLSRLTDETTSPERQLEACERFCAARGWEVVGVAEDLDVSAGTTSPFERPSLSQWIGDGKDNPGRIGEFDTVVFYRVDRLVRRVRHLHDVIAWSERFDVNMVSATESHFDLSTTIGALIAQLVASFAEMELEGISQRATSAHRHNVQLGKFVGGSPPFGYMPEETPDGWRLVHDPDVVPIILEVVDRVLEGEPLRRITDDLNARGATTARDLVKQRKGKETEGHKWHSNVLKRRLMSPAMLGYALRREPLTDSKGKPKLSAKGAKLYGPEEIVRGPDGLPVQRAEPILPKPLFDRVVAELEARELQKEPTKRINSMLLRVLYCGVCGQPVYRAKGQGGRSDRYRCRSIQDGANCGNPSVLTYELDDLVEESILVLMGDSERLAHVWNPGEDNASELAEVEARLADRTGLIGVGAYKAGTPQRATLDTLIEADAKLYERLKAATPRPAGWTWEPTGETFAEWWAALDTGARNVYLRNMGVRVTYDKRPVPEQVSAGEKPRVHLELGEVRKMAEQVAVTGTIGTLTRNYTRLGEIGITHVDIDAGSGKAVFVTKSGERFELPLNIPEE
Conditions: tags: C-terminal GS linker-SV40 NLS; chain copies: 4.

The next data set has as its target Int26 (Clostridium botulinum F str. Langeland). Conditions: tags: C-terminal GS linker-SV40 NLS.
The next data set concerns the target T5, Int4 (Streptococcus equi subsp. equi 4047).
T5 chain: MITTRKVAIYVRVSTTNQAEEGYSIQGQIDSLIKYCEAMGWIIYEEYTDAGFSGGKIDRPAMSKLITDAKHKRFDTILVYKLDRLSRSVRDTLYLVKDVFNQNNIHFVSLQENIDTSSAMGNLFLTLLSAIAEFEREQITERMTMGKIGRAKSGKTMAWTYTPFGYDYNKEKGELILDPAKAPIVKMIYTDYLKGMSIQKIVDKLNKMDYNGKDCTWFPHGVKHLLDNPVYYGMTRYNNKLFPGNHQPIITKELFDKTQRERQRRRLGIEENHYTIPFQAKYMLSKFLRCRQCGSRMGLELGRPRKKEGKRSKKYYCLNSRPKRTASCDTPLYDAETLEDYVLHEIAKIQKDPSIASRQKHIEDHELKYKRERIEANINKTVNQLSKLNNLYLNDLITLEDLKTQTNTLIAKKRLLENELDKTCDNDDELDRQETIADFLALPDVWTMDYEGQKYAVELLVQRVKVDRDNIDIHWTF
Conditions: tags: C-terminal GS linker-SV40 NLS.

A further data set addresses T6, Int30 (Bacillus cereus AH187).
T6 chain: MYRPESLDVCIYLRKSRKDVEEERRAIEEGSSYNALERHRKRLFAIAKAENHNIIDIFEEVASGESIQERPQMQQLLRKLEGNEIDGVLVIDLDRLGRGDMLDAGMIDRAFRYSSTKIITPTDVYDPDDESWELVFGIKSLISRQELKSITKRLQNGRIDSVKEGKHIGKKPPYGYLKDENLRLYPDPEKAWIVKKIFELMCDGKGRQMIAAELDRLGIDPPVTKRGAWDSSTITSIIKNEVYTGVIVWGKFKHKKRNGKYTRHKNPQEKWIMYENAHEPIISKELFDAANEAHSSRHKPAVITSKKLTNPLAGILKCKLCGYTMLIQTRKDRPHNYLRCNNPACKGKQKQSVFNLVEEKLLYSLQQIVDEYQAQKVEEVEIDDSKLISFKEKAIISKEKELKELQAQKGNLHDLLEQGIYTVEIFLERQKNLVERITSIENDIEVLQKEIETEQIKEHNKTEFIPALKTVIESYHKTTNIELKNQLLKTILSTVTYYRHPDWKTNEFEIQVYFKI
Conditions: tags: C-terminal GS linker-SV40 NLS; chain copies: 4.

B1: Int29 attB (dsDNA)
DNA 1: TTTGTAGCCATTAGGCGCATTAGGTTGACGCCATTAAGCCCTAAAGCATCATTCGTCGAAAC
DNA 2: GTTTCGACGAATGATGCTTTAGGGCTTAATGGCGTCAACCTAATGCGCCTAATGGCTACAAA
For B1, the binding signal with Int29 was 2.92 fraction of Bxb1.

B2: Int23 attP (dsDNA)
DNA 1: TATATAATTATTTGGACTAACATATAGTATCCACTTGGCTATTATTAGTTAGTCCAAATAAATA
DNA 2: TATTTATTTGGACTAACTAATAATAGCCAAGTGGATACTATATGTTAGTCCAAATAATTATATA
For B2, in the data set with Int23, the binding signal was 0.201 fraction of Bxb1.

B3: Int5 attB (dsDNA)
DNA 1: GAGCGCCGGATCAGGGAGTGGACGGCCTGGGAGCGCTACACGCTGTGGCTGCGGTCGGTGC
DNA 2: GCACCGACCGCAGCCACAGCGTGTAGCGCTCCCAGGCCGTCCACTCCCTGATCCGGCGCTC
Take B3: in the data set with Int5, the binding signal is 0.152 fraction of Bxb1.

B4: Int32 attP (dsDNA)
DNA 1: CTATGTGGTGGTAATAGCGAGTAGGGGACTACTCGCTCCAGGTACATTAACACCATGGA
DNA 2: TCCATGGTGTTAATGTACCTGGAGCGAGTAGTCCCCTACTCGCTATTACCACCACATAG
With B4, the binding signal in the data set with Int32 is 0.137 fraction of Bxb1.

B5: Int26 attP (dsDNA)
DNA 1: AAATATAACCTGTGTATTGAAACAAGGTGCTGATAAAACCCTTTCATAAACACAAGTAAATA
DNA 2: TATTTACTTGTGTTTATGAAAGGGTTTTATCAGCACCTTGTTTCAATACACAGGTTATATTT
With B5, the binding signal with Int26 is 0.204 fraction of Bxb1.

B6: Int23 attB (dsDNA)
DNA 1: TATTCTAAGTAATGTAGTTTTACCACATCCACTAGGTCCGAGTAAACATAGAAATTCCCCT
DNA 2: AGGGGAATTTCTATGTTTACTCGGACCTAGTGGATGTGGTAAAACTACATTACTTAGAATA
With B6, the binding signal with Int23 was 0.201 fraction of Bxb1.

B7: Int4 attB (dsDNA)
DNA 1: TTCCAAAGAGCGCCCAACGCGACCTGAAATTTGAATAAGACTGCTGCTTGTGTAAAGGCGATGATT
DNA 2: AATCATCGCCTTTACACAAGCAGCAGTCTTATTCAAATTTCAGGTCGCGTTGGGCGCTCTTTGGAA
On to B7, for which the binding signal with Int4 was 1.85 fraction of Bxb1.

B8: Int30 attP (dsDNA)
DNA 1: ATAATAGTGTATATGGTAGAGAATTAAACCAGTTTAATACTCCACCATGTACACGCAGTGAG
DNA 2: CTCACTGCGTGTACATGGTGGAGTATTAAACTGGTTTAATTCTCTACCATATACACTATTAT
For B8, the binding signal with Int30 is 1.29 fraction of Bxb1.

B9: Int4 attP (dsDNA)
DNA 1: CAAAAATTACAAAGTTTTCAACCCTTGATTTGAATTAGCGGTCAAATAATTTGTAATTCGTTT
DNA 2: AAACGAATTACAAATTATTTGACCGCTAATTCAAATCAAGGGTTGAAAACTTTGTAATTTTTG
As for B9, the binding signal in the data set with Int4 is 1.85 fraction of Bxb1.

B10: Int30 attB (dsDNA)
DNA 1: GTAATATGTTTGGATATGGGGAAGTGAATCAGTACAACCGCCACAGTACCCTCATGTCAGCC
DNA 2: GGCTGACATGAGGGTACTGTGGCGGTTGTACTGATTCACTTCCCCATATCCAAACATATTAC
In the case of B10, in the data set with Int30, the binding signal is 1.29 fraction of Bxb1.

B11: Int5 attP (dsDNA)
DNA 1: CCCTAATACGCAAGTCGATAACTCTCCTGGGAGCGTTGACAACTTGCGCACCCTGATCTG
DNA 2: CAGATCAGGGTGCGCAAGTTGTCAACGCTCCCAGGAGAGTTATCGACTTGCGTATTAGGG
B11: in the data set with Int5, the binding signal is 0.152 fraction of Bxb1.

B12: Int29 attP (dsDNA)
DNA 1: CGTCACCTTGTTGGCGTAATTAGATTTACTCCAACAGGGTGATGACAAAGCTAATGAATTTT
DNA 2: AAAATTCATTAGCTTTGTCATCACCCTGTTGGAGTAAATCTAATTACGCCAACAAGGTGACG
Consider B12, for which the binding signal with Int29 was 2.92 fraction of Bxb1.

B13: Int32 attB (dsDNA)
DNA 1: ATCGCGCAGAACGGTGCGGTGATCAGTGAGTACGCACCGGGCACGACACCGGCGAAGCATCG
DNA 2: CGATGCTTCGCCGGTGTCGTGCCCGGTGCGTACTCACTGATCACCGCACCGTTCTGCGCGAT
As to B13, the binding signal in the data set with Int32 is 0.137 fraction of Bxb1.

B14: Int26 attB (dsDNA)
DNA 1: AGAAATAGACCTTTCAACTGGACAAGGTGCTGATAAAACTATGCAGCAAGTCTTAAGTAAA
DNA 2: TTTACTTAAGACTTGCTGCATAGTTTTATCAGCACCTTGTCCAGTTGAAAGGTCTATTTCT
Take B14: the binding signal with Int26 is 0.204 fraction of Bxb1.
